# Molecular target: HIV-1 integrase (IN), recombinant, from the San Francisco isolate SF2 (HIV-1 (San Francisco isolate SF2))
# Test: cross-linking
substance,measurement,value
"HIV-1 integrase (IN), recombinant, from the San Francisco isolate SF2 (enzyme)",stoichiometry N,2

# Reference: publication PMC549407
